# Measured values: publication PMC8054141
# Target: Venus-PreIQ3-IQ-A1.3
# Assay: FRET two-hybrid assay
# Details: parent: est. 22; read off a plot
row,Substance,Ka [µM⁻¹]
1,Cerulean-ICDI1.4 ACR[1917]AAA,14
2,Cerulean-ICDI1.4 ASD[1929]AAA,30
3,Cerulean-ICDI1.4 CVH[1962]AAA,51
4,Cerulean-ICDI1.4 DNA[1926]AAA,7
5,Cerulean-ICDI1.4 EAV[1889]AAA,37
6,Cerulean-ICDI1.4 EGL[1895]AAA,6
7,Cerulean-ICDI1.4 GTH[1871]AAA,48
8,Cerulean-ICDI1.4 LGD[1956]AAA,50
9,Cerulean-ICDI1.4 RFD[1950]AAA,51
10,Cerulean-ICDI1.4 SDP[1874]AAA,31
11,Cerulean-ICDI1.4 SHG[1877]AAA,61

# Other lines, results leading:
row,Ka [µM⁻¹],Substance
1,38,Cerulean-ICDI1.4 ALA[1908]AAA
2,40,Cerulean-ICDI1.4 EED[1953]AAA
3,38,Cerulean-ICDI1.4 EES[1944]AAA
4,26,Cerulean-ICDI1.4 EMA[1959]AAA
5,3.5,Cerulean-ICDI1.4 GLF[1898]AAA
6,42,Cerulean-ICDI1.4 HVP[1868]AAA
7,37,Cerulean-ICDI1.4 ILS[1947]AAA
8,6.5,Cerulean-ICDI1.4 KRG[1880]AAA
9,56,Cerulean-ICDI1.4 QGT[1935]AAA
10,30,Cerulean-ICDI1.4 SAD[1883]AAA
11,46,Cerulean-ICDI1.4 SSL[1938]AAA

# Target: Cerulean-ICDI1.4
# Assay: FRET two-hybrid assay
# Details: parent: est. 26 µM^-1; read off a plot
row,Substance,Ka [µM⁻¹]
1,Venus-IQ-A1.3 GPE[1647]AAA,44
2,Venus-IQ-A1.3 IRR[1650]AAA,8
3,Venus-IQ-A1.3 RTL[1641]AAA,7
4,Venus-IQ-A1.3 TTI[1632]AAA,54

# Next, values leading:
row,Ka [µM⁻¹],Substance
1,7.5,Venus-IQ-A1.3 AGL[1638]AAA
2,9.5,Venus-IQ-A1.3 AIS[1653]AAA
3,22,Venus-IQ-A1.3 AKN[1629]AAA
4,8.5,Venus-IQ-A1.3 ALQ[1635]AAA
5,55,Venus-IQ-A1.3 HDI[1644]AAA
6,25,Venus-IQ-A1.3 KYP[1626]AAA
7,27,Venus-IQ-A1.3 LVG[1623]AAA

# Same assay, conditions: parent: est. 21; read off a plot
row,Substance,Ka [µM⁻¹]
1,Venus-PreIQ3-IQ-A1.3 A[-16]T,18
2,Venus-PreIQ3-IQ-A1.3 D[-14]A,14
3,Venus-PreIQ3-IQ-A1.3 F[+4]A,3.2
4,Venus-PreIQ3-IQ-A1.3 G[-15]A,22
5,Venus-PreIQ3-IQ-A1.3 I[0]A,24
6,Venus-PreIQ3-IQ-A1.3 K[+9]A,15
7,Venus-PreIQ3-IQ-A1.3 K[+11]A,15
8,Venus-PreIQ3-IQ-A1.3 K[-7]A,14
9,Venus-PreIQ3-IQ-A1.3 P[-18]A,22
10,Venus-PreIQ3-IQ-A1.3 T[-3]A,34
11,Venus-PreIQ3-IQ-A1.3 T[-10]A,37
12,Venus-PreIQ3-IQ-A1.3 V[-9]A,11

# Second part, the substance after the results:
row,Ka [µM⁻¹],Substance
1,9,Venus-PreIQ3-IQ-A1.3 A[-4]T
2,18,Venus-PreIQ3-IQ-A1.3 D[+2]A
3,28,Venus-PreIQ3-IQ-A1.3 D[-13]A
4,37,Venus-PreIQ3-IQ-A1.3 E[-12]A
5,15,Venus-PreIQ3-IQ-A1.3 F[+7]A
6,12,Venus-PreIQ3-IQ-A1.3 F[-6]A
7,32,Venus-PreIQ3-IQ-A1.3 G[-8]A
8,15,Venus-PreIQ3-IQ-A1.3 K[+6]A
9,15,Venus-PreIQ3-IQ-A1.3 K[+8]A
10,7,Venus-PreIQ3-IQ-A1.3 L[-1]A
11,16,Venus-PreIQ3-IQ-A1.3 P[-17]A
12,24,Venus-PreIQ3-IQ-A1.3 Q[+1]A
13,16,Venus-PreIQ3-IQ-A1.3 R[+5]A
14,15,Venus-PreIQ3-IQ-A1.3 R[+10]A
15,15,Venus-PreIQ3-IQ-A1.3 V[-11]A
16,25,Venus-PreIQ3-IQ-A1.3 Y[+3]A
17,4.7,Venus-PreIQ3-IQ-A1.3 Y[-5]A
